Literature values in paper PMC3164524.

Molecular target: pYAQL peptide
Assay: SPR

- Kd: 260 nM
Substance: SHP-2 N-SH2 (from UniProt Q06124)
